Where no end group is shown, it is not given here.
B1: 6x histidine tagged Zn(II)GB1-Ymbs38 fusion protein (other, streptococcal;E. hirae, UniProt P06654 228-282, looked up)
chain: TYKLILNGKTLKGETTTEAVDAATAEKVFKQYANDNGVDGEWTYDDATKTFTVTEATLTQEDIQQIMKQLNKKEPVETIECNCIPGQCECKKQ
modifications: Zn(II) bound by the four cysteines of the Cys-x-Cys-xxxx-Cys-x-Cys site
notes: Calculated monomer mass 12.8 kDa (tagged); also called 6hGB1-Ymbs38; native Zn(II)GB1-Ymbs38; not shown: N-terminal 6xHis tag and thrombin site (Leu-Val-Pro-Arg-Gly-Ser) from the pET-14b vector
B2: 6x histidine tagged apo (cysteine modified) GB1-Ymbs38 (other, streptococcal;E. hirae, UniProt P06654 228-282, looked up)
chain: B1 chain
modifications: Zn(II) removed (EDTA or acidification); the four cysteines of the metal binding motif carboxyamidomethylated with iodoacetamide
notes: Calculated mass of the carboxyamidomethylated protein 12,992 Da; also called apo-GB1-Ymbs38; Apo-GB1-Ymbs38; not shown: N-terminal 6xHis tag and thrombin site (Leu-Val-Pro-Arg-Gly-Ser) from the pET-14b vector
B3: 6x histidine tagged GB1 (lacking the Ymbs38 extension) (other, streptococcal, UniProt P06654 228-282, looked up)
chain: TYKLILNGKTLKGETTTEAVDAATAEKVFKQYANDNGVDGEWTYDDATKTFTVTE
modifications: also: 6x histidine tag, place not given here
notes: Calculated mass with tag 8387 Da (8.4 kDa); Control without the CopY part; also called 6xhis tagged GB1; not shown: 6x histidine tag

How the values were obtained:
[1] = target: the molecule itself; experiment: large zone size exclusion chromatography, fit to monomer-dimer model, 4 °C
Description: The data points are the recorded experimental values of σw, at each loading concentration, and the solid line illustrates the best fit of the data to a monomer-dimer stoichiometric model. Non-linear least squares analysis was used to obtain the best fit according to the procedure. To verify that the data was fit to the appropriate stoichiometric model, a residual plot, which plots the difference between the observed fₘ and the calculated fₘ versus log [loaded protein], was prepared. The elution volume of each sample was converted to the weight average partition coefficient, which was plotted as a function of GB1-Ymbs38 concentration loaded onto the chromatography column. The Kd value was calculated from the best fit of the data to a monomer-dimer stoichiometric model, represented on the plot as a solid line. The plot shown corresponds to one of the three large zone chromatography trials performed on the apo-GB1-Ymbs38 protein variant.
The fitting of the data yielded the equilibrium association constants for each protein variant, which were subsequently converted to dissociation constants, Kd. Residual points were obtained by subtracting the fraction of monomer calculated by the best fit from the actual experimental value. Residuals were ploted against the log (loaded protein). […] Equilibrium association constants were used to calculate the Gibbs energy of assembly (ΔG°) through the equation: ΔG°=−RTlnKₐ₋Equilibrium association and dissociation constants, and the Gibbs free energy changes are shown in Table 6 for each GB1-Ymbs38 variant. A decrease in affinity between GB1-Ymbs38 monomers occurred upon mutation of the leucine and isoleucine residues or upon the removal of Zn(II), with the Zn(II) removal resulting in a larger decrease. The combination of Zn(II) removal and mutation of the aliphatic amino acids eliminated the ability of GB1-Ymbs38 monomer to self-associate.

[2] = target: the molecule itself; experiment: large zone size exclusion chromatography (Shodex KW 803), one trial dated 6/9/06; non-linear least squares fit of the fraction of monomer to a monomer-dimer model; cell H5 'Equilibrium constant'; sum of squares 0.025076973; no unit in the cell, loaded concentrations are in M and the text gives Ka in M^-1
Description: A 5 mL aliquot of Zn(II)CopY was loaded onto a Shodex KW 803 column (total column volume is 15 mL) equilibrated in 50 mM Tris, pH 7.8, 150 mM NaCl, 0.05% β-mercaptoethanol. […] The measure of the apparent molecular weight of the protein at each concentration was calculated by correlating the elution volume of the leading edge with elution volumes of known molecular weight standards.
The plot of the change in apparent molecular weight versus the concentration of protein loaded onto the chromatography column provided an understanding of the process that occurred during the large zone chromatography experiment. The acquired data could be further manipulated in order to calculate the equilibrium dissociation constant for the GB1-Ymbs38 dimer. […] The data points are the recorded experimental values of σw, at each loading concentration, and the solid line illustrates the best fit of the data to a monomer-dimer stoichiometric model. […] To verify that the data was fit to the appropriate stoichiometric model, a residual plot, which plots the difference between the observed fₘ and the calculated fₘ versus log [loaded protein], was prepared. […] The Kd value was calculated from the best fit of the data to a monomer-dimer stoichiometric model, represented on the plot as a solid line.

[3] = target: the molecule itself; experiment: large zone size exclusion chromatography, one of three trials; best fit of the weight average partition coefficient against log [loaded protein] to a monomer-dimer model; self-association
Description: The measure of the apparent molecular weight of the protein at each concentration was calculated by correlating the elution volume of the leading edge with elution volumes of known molecular weight standards.
The plot of the change in apparent molecular weight versus the concentration of protein loaded onto the chromatography column provided an understanding of the process that occurred during the large zone chromatography experiment. The acquired data could be further manipulated in order to calculate the equilibrium dissociation constant for the GB1-Ymbs38 dimer. The elution volume, Vₑ, was converted to the weight average partition coefficient, σw, which represented the fraction of solvent volume within the gel matrix that was accessible to the protein. […] The data points are the recorded experimental values of σw, at each loading concentration, and the solid line illustrates the best fit of the data to a monomer-dimer stoichiometric model. Non-linear least squares analysis was used to obtain the best fit according to the procedure. To verify that the data was fit to the appropriate stoichiometric model, a residual plot, which plots the difference between the observed fₘ and the calculated fₘ versus log [loaded protein], was prepared. […] The Kd value was calculated from the best fit of the data to a monomer-dimer stoichiometric model, represented on the plot as a solid line. […]

[4] = target: the molecule itself; experiment: ESI-MS, declustering voltage 10 V
Description: A Waters Micromass ZMD quadrupole mass spectrometer was used for all experiments. The mass spectrometer was calibrated with cesium iodide. The temperature at the ion spray interface was kept at 40° C. A voltage of 2.0 kV at the tip of the inlet capillary needle was used to generate the electrospray. The cone voltage was set at 20 V and the extractor voltage was set at 10 V, resulting in a declustering voltage (ΔCS) of 10 V. Samples of protein were prepared in 10 mM ammonium acetate, pH 8.0, at concentrations of approximately 250 μM and were delivered at a flow rate of 50 μL/min into the ion source.
A 6× histidine tagged version of GB1 alone (lacking the Ymbs38 extension) was subjected to ESI-MS under the same conditions. […] Charged ions due to monomeric GB1 are shown labeled with the bolded numbers. The molecular mass derived from the +6 and +7 charge states is 8258 Da. (Calculated molecular mass of GB1 with the 6× histidine tag=8387 Da.).

[5] = target: T1, untagged Zn(II)GB1-Ymbs38 (6x histidine tag removed by thrombin) (streptococcal; E. hirae, UniProt P06654 228-282; Q47839 108-145, Zn(II) bound by the four cysteines of the Cys-x-Cys-xxxx-Cys-x-Cys site); experiment: HIS-Select nickel affinity resin binding assay, SDS-PAGE
T1 construct: also called untagged GB1-Ymbs38; untagged wild-type Zn(II)GB1-Ymbs38; not shown: vector residues left after thrombin cleavage at Leu-Val-Pro-Arg-Gly-Ser
Excerpt: Sigma® HlS-Select™ Nickel Affinity resin was used to assess dimerization between histidine-tagged and untagged proteins. Tagged and untagged versions of CopY were isolated as described above. The untagged version of GB1-Ymbs38 was isolated from the purified tagged protein by treatment with the Sigma® THROMBIN CleanCleave™ Kit. A thrombin cleavage site between the histidine tag and the start of the GB1-Ymbs38 protein allowed for easy removal of the tag. Dimerization reactions of tagged and untagged protein were performed in 50 mM Tris, pH 7.8, 300 mM NaCl. Approximately equilmolar amounts of each protein were mixed and incubated at 37° C. for 45 minutes to promote subunit interchange. The protein mixture was applied to 100 μL of drained HIS-Select resin that had been equilibrated in 50 mM Tris, pH 7.8, 300 mM NaCl in a Centricep spin column (Princeton Separations, Inc.) at room temperature. After 1 minute of constant agitation, the resin-protein mixture was centrifuged at 500×g for 30 seconds and the flow through was collected in a clean microfuge tube. The resin then was washed twice with 350 μL of 50 mM Tris, pH 7.8, 300 mM NaCl, and once with 50 mM Tris, pH 7.8, 300 mM NaCl, 20 mM imidazole. Each wash step was followed by centrifugation at 500×g for 30 seconds to remove excess liquid. […] Eluants were analyzed on 15% Tris-tricine SDS-PAGE stained with Coomassie brilliant blue R-250.

Binder | Ka [1] [M⁻¹] | Kd [1] [µM] | Ka [2] [M⁻¹] | Kd [3] [µM] | binding result [4] | binding result [5]
B1 | 37000 | 28 | 40200 | – | – | –
B2 | 10000 | 51 | – | 54 | – | –
B3 | – | – | – | – | no binding (tested: approximately 250 µM) | no binding
